Results from patent US20230365705A1 (DYNAMICURE BIOTECHNOLOGY, published 2023).
Values joined by “and” are separate entries in the source; they are usually repeats but may differ in a detail not shown here. Equal values may be shown once.

T1: Human CD93 recombinant protein (Sino Biological Inc, Catalog #12589-H08H) (human, UniProt Q9NPY3 22-580)
T1 construct: Biotinylated (EZ-LINK NHS-PEG4 biotin) in the BLI assays; also called hCD93; His-tagged human CD93
T1 sequence (looked up): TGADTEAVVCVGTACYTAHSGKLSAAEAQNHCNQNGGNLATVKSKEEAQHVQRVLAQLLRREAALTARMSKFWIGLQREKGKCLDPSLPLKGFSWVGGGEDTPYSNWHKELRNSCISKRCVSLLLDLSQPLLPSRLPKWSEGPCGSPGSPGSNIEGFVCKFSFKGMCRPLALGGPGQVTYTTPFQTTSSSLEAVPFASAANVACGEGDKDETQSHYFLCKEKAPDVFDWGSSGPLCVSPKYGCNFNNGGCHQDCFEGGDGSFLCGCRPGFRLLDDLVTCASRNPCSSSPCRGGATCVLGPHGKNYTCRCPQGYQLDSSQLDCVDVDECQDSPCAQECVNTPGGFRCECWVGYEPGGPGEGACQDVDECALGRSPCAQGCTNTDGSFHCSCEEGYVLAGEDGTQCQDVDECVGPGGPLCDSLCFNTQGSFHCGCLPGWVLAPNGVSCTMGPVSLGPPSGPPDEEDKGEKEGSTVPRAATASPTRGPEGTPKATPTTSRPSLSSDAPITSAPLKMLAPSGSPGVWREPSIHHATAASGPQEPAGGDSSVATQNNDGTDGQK

T2: Human CD93 on cells (human CD93 expressing CHO cells; HUVEC, U937 and KG1a cells) (human, UniProt Q9NPY3 22-652)
T2 construct: whole, on cells; also called hCD93 expressing CHO cells; hCD93 CHO cells
T2 sequence (looked up): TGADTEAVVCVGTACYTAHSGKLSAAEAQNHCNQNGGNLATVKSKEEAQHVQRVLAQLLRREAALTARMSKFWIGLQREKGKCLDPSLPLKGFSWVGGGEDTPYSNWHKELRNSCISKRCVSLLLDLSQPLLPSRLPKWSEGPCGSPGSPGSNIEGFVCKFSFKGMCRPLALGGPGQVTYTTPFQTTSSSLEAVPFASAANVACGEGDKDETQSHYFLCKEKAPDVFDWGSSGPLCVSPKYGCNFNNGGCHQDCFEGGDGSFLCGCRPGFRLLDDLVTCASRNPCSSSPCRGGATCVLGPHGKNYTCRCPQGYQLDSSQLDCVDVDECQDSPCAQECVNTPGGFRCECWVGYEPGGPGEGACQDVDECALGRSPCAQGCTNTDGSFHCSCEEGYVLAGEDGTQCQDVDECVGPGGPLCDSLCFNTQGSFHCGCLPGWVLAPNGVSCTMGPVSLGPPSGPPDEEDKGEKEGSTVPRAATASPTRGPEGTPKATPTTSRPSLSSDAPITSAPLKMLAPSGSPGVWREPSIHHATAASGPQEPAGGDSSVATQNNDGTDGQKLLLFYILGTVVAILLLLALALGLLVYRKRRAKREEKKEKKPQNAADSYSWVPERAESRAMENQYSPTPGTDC

T3: rm VEGFA (recombinant mouse VEGFA) (mouse, UniProt Q00731-2 27-190, limits assumed)
T3 sequence (looked up): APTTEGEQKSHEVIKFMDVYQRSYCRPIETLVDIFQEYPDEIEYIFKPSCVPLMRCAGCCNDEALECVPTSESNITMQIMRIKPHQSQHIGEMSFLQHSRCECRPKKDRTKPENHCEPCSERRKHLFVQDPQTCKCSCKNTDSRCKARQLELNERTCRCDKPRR

B1: 16E4-hIgG1 (recombinant chimeric 16E4) (antibody, V domains shown)
VH: QVQLQQPGAELVKPGASVKLSCKASGYTFTSYWMHWVKQRPGQGLEWIGEIDPSASYTYYNQKFKGKATLTVDKSSSTAYMQLSSLTSEDSAVYYCARSVYYGNKYFDVWGAGTTVTVSS
VL: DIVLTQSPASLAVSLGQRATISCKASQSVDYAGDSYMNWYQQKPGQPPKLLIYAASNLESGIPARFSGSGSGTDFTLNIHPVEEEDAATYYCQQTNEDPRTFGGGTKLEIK
notes: the same paragraph once calls it 'humanized'; also called recombinant 16E4
B2: 7F3-hIgG1 (recombinant chimeric 7F3) (antibody, V domains shown)
VH: QVQLQQSGADLVRPGASVKLSCKASGYTFTDYEMHWVKQTPVYGLEWIGGIDPETGDTAYNQNFKGKATLTADKSSSAAYMELRSLTSEDSAVYYCTNYGNLYYYAMDYWGQGTSVTVSS
VL: ENVLTQSPAIMSASPGEKVTMTCRASSSVSSSYLHWYQQKSGASPKLWIYSTSNLAFGVPARFSGSGSGTSYSLTISSVEAEDAATYYCQQYSGYPLTFGSGTKLEIK
notes: also called chimeric 7F3-hIgG1; recombinant 7F3
B3: humanized 17B10 (VH3VL3, i.e., H3L3) with a chimeric Fc containing mouse IgG1 CH2 and CH3 domains and human CH1 domains (antibody, V domains shown)
VH: QVQLVQSGPEVKKPGESLKISCKASGYAFSSYWLNWVRQMPGKGLEWMGRIYPGDGDTDYNGKFKGQVTISADKSSGTAYLQLSSLKASDTAVYFCVRGDGYWAMDYWGQGTLVTVSS
VL: DIVMTQSPDSLAVSLGERATINCRFSKSLLHSNGITYLYWYQQKPGQPPKLLIYQMSNLASGVPDRFSGSGSGTDFTLTISSLQAEDVAVYYCAQNLELPWTFGGGTKLEIK
notes: Human CH1, mouse IgG1 CH2 and CH3; also called h17B10-H3L3; humanized 17B10-mFc
B4: chimeric 7F3/VEGFRFc (chimeric 7F3-Aflibercept) (bispecific antibody, human IgG1, kappa)
heavy: not shown
light: ENVLTQSPAIMSASPGEKVTMTCRASSSVSSSYLHWYQQKSGASPKLWIYSTSNLAFGVPARFSGSGSGTSYSLTISSVEAEDAATYYCQQYSGYPLTFGSGTKLEIKRTVAAPSVFIFPPSDEQLKSGTASVVCLLNNFYPREAKVQWKVDNALQSGNSQESVTEQDSKDSTYSLSSTLTLSKADYEKHKVYACEVTHQGLSSPVTKSFNRGEC
notes: also called chimeric 7F3/VEGFR construct
B5: humanized 7F3/VEGFRFc (h7F3/VEGFRFc) (bispecific antibody, human IgG1, kappa)
heavy: not shown
light: EIVLTQSPSSLSASVGDRVTITCRASSSVSSSYLHWYQQKPGKAPKLLIYSTSNLAFGVPSRFSGSGSGTSYTFTISSLQPEDIATYYCQQYSGYPLTFGSGTKLEIKRTVAAPSVFIFPPSDEQLKSGTASVVCLLNNFYPREAKVQWKVDNALQSGNSQESVTEQDSKDSTYSLSSTLTLSKADYEKHKVYACEVTHQGLSSPVTKSFNRGEC
notes: Full-length human IgG1 with VEGF-trap on the C-terminus of both heavy chains; also called humanized 7F3-Aflibercept; h7F3-VEGF trap

Experiments:
[1] = molecular target: T1, Human CD93 recombinant protein (Sino …); test: summary table, column ELISA (hCD93)
[2] = molecular target: T1, Human CD93 recombinant protein (Sino …); test: ELISA, hCD93-His coated, OD450
Protocol: His-tagged human CD93 was coated onto a 96 well plate at 1 μg/mL in 1×PBS overnight at 4° C. The plate was washed with ELISA wash buffer (Boston BioProduct, Inc.) and the wells were blocked with ELISA blocking buffer for 1 hour at 37° C. Purified antibodies were serially diluted in ELISA blocking buffer (Boston BioProduct, Inc.) and incubated on the receptor for 1 hour at 37° C. The plate was washed with ELISA wash Buffer. […] The plate was washed with ELISA wash buffer. HRP substrate was added for indirect detection of the antibodies binding to CD93.

[3] = molecular target: T1, Human CD93 recombinant protein (Sino …); test: summary table, column Octet (hCD93)
[4] = molecular target: T1, Human CD93 recombinant protein (Sino …); test: BLI (Octet QKe), biotinylated human CD93 on streptavidin biosensors
Protocol: The binding affinity of anti-CD93 antibodies was determined with bio-layer interferometry using Octet QKe (Fortebio). […] Human CD93 recombinant protein (Sino Biological Inc, Catalog #12589-H08H) was biotinylated using EZ-LINK NHS-PEG4 biotin (Thermo Fisher Scientific). Streptavidin biosensors (Fortebio) were used to load biotinylated CD93 protein (300 seconds in 5 μg/ml). Baseline was stabilized for 60 seconds in 1×kinetics buffer (Fortebio) before anti-CD93 antibodies, at a serial dilution, were allowed to associate for 300 seconds with captured protein. Then the sensors were dissociated in 1× kinetics buffer for 600 seconds. […] (FIG. 41).

[5] = molecular target: T2, Human CD93 on cells (human CD93 …); test: flow cytometry on human CD93 expressing CHO cells
Protocol: Human CD93 expressing CHO cells were detached by incubation with TrypLE reagents (Thermo Fisher), which preserves the integrity of CD93 on the cell surface. Then the cells were incubated with serially diluted anti-CD93 antibodies for 30 minutes in 4° C. After washing by FACS buffer, the cells were incubated with Alexa Fluor 647 conjugated anti-human IgG (Jackson ImmunoResearch) for 30 minutes in 4° C. After washing by FACS buffer twice, the samples were acquired in NovoCyte Flow Cytometer and analyzed by NovoExpress software.

[6] = molecular target: T1, Human CD93 recombinant protein (Sino …); test: ELISA, His-tagged human CD93 coated, OD450
Protocol: (§1) His-tagged human CD93 was coated onto a 96 well plate at 1 μg/mL in 1×PBS overnight at 4° C. The plate was washed with ELISA wash buffer (Boston BioProduct, Inc.) and the wells were blocked with ELISA blocking buffer for 1 hour at 37° C. […] The plate was washed with ELISA wash Buffer. HRP-conjugated anti-human Fc antibody was incubated for 1 hour at 37° C. The plate was washed with ELISA wash Buffer. HRP substrate was added for indirect detection of the antibodies binding to CD93.

[7] = molecular target: T4, rh VEGFA (recombinant human VEGFA) (human, UniProt P15692-4 27-191, limits assumed); test: ELISA, antigen coated at 1 µg/mL
Protocol: (§2) His-tagged human CD93, cyno CD93, human VEGFA, and mouse VEGFA were coated onto a 96 well plate at 1 μg/mL in 1× PBS overnight at 4′C. The plate was washed with ELISA wash buffer (Boston BioProduct, Inc.) and the wells were blocked with 3% BSA/PBS ELISA blocking buffer for 1 hour at 37′C. […] The plate was washed with ELISA wash Buffer. HRP conjugated Anti-human Fc was added and incubated for one hour at 37° C. The plate was washed with ELISA wash buffer and read in a microplate reader at 405 nm.

[8] = molecular target: T3, rm VEGFA (recombinant mouse VEGFA); test: ELISA, mVEGFA coated at 1 µg/mL, anti-human Fc HRP; single bars, concentration not given
Protocol: as §2

[9] = molecular target: T2, Human CD93 on cells (human CD93 …); test: flow cytometry, CHO cells overexpressing human CD93, antibody 0.01ug, mIgG1 as control, APC-A
[10] = molecular target: T2, Human CD93 on cells (human CD93 …); test: flow cytometry titration on KG1a cells; column head printed kd, unit from the axis log (concentration (M))
[11] = molecular target: T2, Human CD93 on cells (human CD93 …); test: flow cytometry titration on U937 cells; column head printed kd, unit from the axis log (concentration (M))
[12] = molecular target: T1, Human CD93 recombinant protein (Sino …); test: ELISA, His-tagged human CD93 coated, OD450; remark: listed apart in the source
Protocol: as §1, with “HRP-conjugated anti-human Fc antibody was incubated for 1 hour at 37° C.” left out

[13] = molecular target: T2, Human CD93 on cells (human CD93 …); test: flow cytometry on human CD93 expressing CHO cells (10 µg/ml by the text)
[14] = molecular target: T1, Human CD93 recombinant protein (Sino …); test: ELISA, antigen coated at 1 µg/mL
Protocol: as §2

[15] = molecular target: T4, rh VEGFA (recombinant human VEGFA); test: BLI (Octet QKe), biotinylated rh VEGFA on streptavidin sensors
Protocol: (§3) The rh VEGFA was made in-house and biotinylated using EZ-LINK NHS-PEG4 biotin (Thermo Fisher Scientific). Streptavidin biosensors (Fortebio) were used to load biotinylated rh VEGFA protein (300 seconds in 5 μg/ml). […] Then the sensors were dissociated in 1× kinetics buffer for 600 seconds.

[16] = molecular target: T4, rh VEGFA (recombinant human VEGFA); test: BLI (Octet), biotinylated rh VEGFA on streptavidin biosensors, sample in serial dilution
Protocol: as §3

Binder	EC50 [1]	EC50 [2]	Kd [3]	Kd [4]	koff [4]	kon [4]	EC50 [5]	EC50 [6]	other results
B1	0.041 nM	0.022 nM	0.135 nM	0.135 nM	2.93e-05 s⁻¹	217000 M⁻¹ s⁻¹	0.24 nM	0.041 nM	
B2	0.041 nM	0.02 nM	0.588 nM	0.588 nM	0.000335 s⁻¹	570000 M⁻¹ s⁻¹	0.4 nM	0.041 nM	binding result [7]: no binding; binding result [8]: no binding
B3									M2 gate, % of cells [9]: 93%; Kd [10]: 0.0772 nM and 0.0952 nM; Kd [11]: 0.104 nM and 0.0944 nM; EC50 [12]: 0.213 nM
B4									binding result [13]: binds; binding result [14]: binds
B5									Kd [15]: 2 nM; Kd [16]: 2.01 nM; koff [16]: 0.000121 s⁻¹; kon [16]: 60300 M⁻¹ s⁻¹
